The record followed here is the RNAGym collection of RNA variant scans (doi:10.7554/elife.90254).

Sequences and labels used below:
B1: OR4K15 (parent)
chain: GUUAACGGUCAUAGGCCAUGGAAACUAGGAGCACCAUUUCGCUGCCAGUGAAGAAAUGAACAAAGAAAAUCUGGGCCAGGCAGGCAUCAAAAGAAAUAGUCUUGCGCUCAACCAGAAAGUCUGUAAUCAUUUUAAGGGUA

The variants in the data set derive from B1. Briefly: self-cleavage, relative activity (ratio to wild type); higher = more cleavage; in vitro, sequencing; the parent is a self-cleaving ribozyme.
Take GUUAACGGUCAUAGGCCAUGGAAACUUGGAGCACCAUUCCGCUGCCAGUGAAGAAAUGAACAAAGAAAAUCUGGGCCAGGCAGGCAUCAAAAGAAAUAGUCUUGCGCUCAACCAGAAAGUCUGUAAUCAUUUUAAGGGUA [A27U U39C]: the self-cleavage was 0.93.

Turning to GUUAACGGUCAUAGGCCAUGGAAACUUGGAGCACCAUUACGCUGCCAGUGAAGAAAUGAACAAAGAAAAUCUGGGCCAGGCAGGCAUCAAAAGAAAUAGUCUUGCGCUCAACCAGAAAGUCUGUAAUCAUUUUAAGGGUA [A27U U39A], the self-cleavage is 1.49. As for GUUAACGGUCAUAGGCCAUGGAAACUUGGGGCACCAUUUCGCUGCCAGUGAAGAAAUGAACAAAGAAAAUCUGGGCCAGGCAGGCAUCAAAAGAAAUAGUCUUGCGCUCAACCAGAAAGUCUGUAAUCAUUUUAAGGGUA [A27U A30G], the figure is 0.38; as for GUUAACGGUCAUAGGCCAUGGAAACUUGGAGCACCAUUUCGCUGCCAGUGAAGAAAUGAACAAAGAAAAUCUGGGCCAGGCAGGCAUCAAAAGAAAUAGUCUUGCGCUCAACCAGAAAGACUGUAAUCAUUUUAAGGGUA [A27U U120A], 1.85; as for GUUAACGGUCAUAGGCCAUGGAAACUUGGAGCACCAUUUCGCUGCCAGUGAGGAAAUGAACAAAGAAAAUCUGGGCCAGGCAGGCAUCAAAAGAAAUAGUCUUGCGCUCAACCAGAAAGUCUGUAAUCAUUUUAAGGGUA [A27U A52G], 1.91. In the case of GUUAACGGUCAUAGGCCAUGGAAACUAAGAGCACCAUUUCGCUGCCAGUGAAGAAAUGAACAAAGAAAAUCUGGGCCAGGCAGGCUUCAAAAGAAAUAGUCUUGCGCUCAACCAGAAAGUCUGUAAUCAUUUUAAGGGUA [G28A A86U] it was 1.88; in that of GUUAACGGUCAUAGGCCAUGGAAACUUGGAGCACCAUUUCGCGGCCAGUGAAGAAAUGAACAAAGAAAAUCUGGGCCAGGCAGGCAUCAAAAGAAAUAGUCUUGCGCUCAACCAGAAAGUCUGUAAUCAUUUUAAGGGUA [A27U U43G], 1.64. As for GUUAACGGUCAUAGGCCAUGGAAACUUGGAGCACCAUUUCGCUGCCAGUGAAGAAAUGAACAAAGAAAAUCUGGGCCAGGCAGGCAACAAAAGAAAUAGUCUUGCGCUCAACCAGAAAGUCUGUAAUCAUUUUAAGGGUA [A27U U87A], the self-cleavage was found to be 1.48.

As to GUUAACGGUCAUAGGCCAUGGAAACUAAGAGCACCAUUUCGCUGCCAGUGAAGAAAUGAACAAAGAAAAUCUGGGCCAGGCAGGCAUCAAAAGAAAUGGUCUUGCGCUCAACCAGAAAGUCUGUAAUCAUUUUAAGGGUA [G28A A98G], the self-cleavage was found to be 0.39. In the case of GUUAACGGUCAUAGGCCAUGGAAACUGGGAGCACCAUUUCGCUGCCAGUGAAGAAAUGAACAAAGAAAAUCUGGGCCAGGCAGGCAUCAAAAGAAAUAGUCUUGCGCUCAACCAGAAAGUCUGUAAUCAUUUUAAGGGAA [A27G U139A] it was 1.27; in that of GUUAACGGUCAUAGGCCAUGGAAACUAAGAGCACCAUUUCGCUGCCAGUGAAGAAAUGAACAAAGAGAAUCUGGGCCAGGCAGGCAUCAAAAGAAAUAGUCUUGCGCUCAACCAGAAAGUCUGUAAUCAUUUUAAGGGUA [G28A A67G], 1.55. For the variant GUUAACGGUCAUAGGCCAUGGAAACUAAGAGCACCAUUUCGCUGCCAGUGAAGAAAUGAACAAAGAAAAUCUGGGCCAGGCAGGCAUCAAAAGAAAUAGUCUUGCGCUCGACCAGAAAGUCUGUAAUCAUUUUAAGGGUA [G28A A110G], the self-cleavage turned out to be 0.17. As for GUUAACGGUCAUAGGCCAUGGAAACUUGGAGCACCAUUUCGCUGCCAGUGAAGAAAUGAACAAAGAAAAUCUGGGCCAGGCAGGCAUCAAAAGAAAUAGUCUUGCGCUCAACCAGGAAGUCUGUAAUCAUUUUAAGGGUA [A27U A116G], the figure is 0.63; as for GUUAACGGUCAUAGGCCAUGGAAACUUGGAGCACCAUUUCGCUGCCAGUGAAGAAAUGAACAAAGAAAAUCUGGGCCAGGCAGGCAUCAAAAGAAAUAAUCUUGCGCUCAACCAGAAAGUCUGUAAUCAUUUUAAGGGUA [A27U G99A], 0.6; as for GUUAACGGUCAUAGGCCAUGGAAACUAAGAGCACCAUUUCGCUGCCAGUGAAGACAUGAACAAAGAAAAUCUGGGCCAGGCAGGCAUCAAAAGAAAUAGUCUUGCGCUCAACCAGAAAGUCUGUAAUCAUUUUAAGGGUA [G28A A55C], 1.7. As for GUUAACGGUCAUAGGCCAUGGAAACUAAGAGCACCAUUUCGCUGCCAGUGAAGAAAUGAACAAAGAAAAUCUGGGCCAGGCAGGCAUCUAAAGAAAUAGUCUUGCGCUCAACCAGAAAGUCUGUAAUCAUUUUAAGGGUA [G28A A89U], the figure is 1.38. As for GUUAACGGUCAUAGGCCAUGGAAACUAAGAGCACCAUUUCGCUGCCAGUGAAGAAAUGAACAAAGAAAAUCUGGGCCAGGCAGGCAUCAAAAGAAAUAGUCUUGCGCUCAACCAGAAAGUCUGUAAUCAUUUUAAGGGUA [G28A], the figure is 1.09; as for GUUAACGGUCAUAGGCCAUGGAAACUUGGAGCACCAUUUCGCUGCCAGUGAAGAAAUGAACAAAGAAGAUCUGGGCCAGGCAGGCAUCAAAAGAAAUAGUCUUGCGCUCAACCAGAAAGUCUGUAAUCAUUUUAAGGGUA [A27U A68G], 1.61.

Regarding GUUAACGGUCAUAGGCCAUGGAAACUUGGAGCACCAUUUCGCUGCCAGUGAAGAAAUGAACAGAGAAAAUCUGGGCCAGGCAGGCAUCAAAAGAAAUAGUCUUGCGCUCAACCAGAAAGUCUGUAAUCAUUUUAAGGGUA [A27U A63G], the self-cleavage came out at 2.61.

For the variant GUUAACGGUCAUAGGCCAUGGAAACUUGGAGCACCAUUUCGCUGCCAGUGAAGAAAUGAACAAAGAAAAUCUGGGCCAGGCAGGCAUCAAGAGAAAUAGUCUUGCGCUCAACCAGAAAGUCUGUAAUCAUUUUAAGGGUA [A27U A91G], the self-cleavage turned out to be 1.19.

As to GUUAACGGUCAUAGGCCAUGGAAACUAAGAGCACCAUUUCGCUGCCAGUGAAGAAAUGAACAAAGAAAAUCUGGGCCUGGCAGGCAUCAAAAGAAAUAGUCUUGCGCUCAACCAGAAAGUCUGUAAUCAUUUUAAGGGUA [G28A A78U], the self-cleavage was 0.18. As for GUUAACGGUCAUAGGCCAUGGAAACUAAGAGCACCAUUUCGCUGCCAGUGAAGAAAUGAACAAAGAAAAUCUGGGCCAGGCAGGCAUCAAAAGAAAUAGUCUUGCGCUCAACCAGAAAGUCUGUAAUCGUUUUAAGGGUA [G28A A129G], the figure is 0.99. With GUUAACGGUCAUAGGCCAUGGAAACUUGGAGCACCAUUUCGCUGCCAGUGAAGAAAUGAACAAAGAAAAUCUGGGCCAGGCAGGCAUCAAAAGAAAUAGUCUUGCGCUCAACCAGAAAGUCUGUAAUCAUUAUAAGGGUA [A27U U132A], the self-cleavage came out at 1.42.

Regarding GUUAACGGUCAUAGGCCAUGGAAACUUGGAGCACCAUUUCGCUGCCAGUGAAGAAAUGGACAAAGAAAAUCUGGGCCAGGCAGGCAUCAAAAGAAAUAGUCUUGCGCUCAACCAGAAAGUCUGUAAUCAUUUUAAGGGUA [A27U A59G], the self-cleavage was 0.92. As for GUUAACGGUCAUAGGCCAUGGAAACUUGGAGCACCAUUUCGCUGCCAGUGAAGAAAUGAACAAAGAAAAUCUGGGCCAGGCAGGCAUCAAAAGAAAUAGUCUUGCGCUCAACCAGAAAGUCUGUGAUCAUUUUAAGGGUA [A27U A125G], the self-cleavage is 0.84. As for GUUAACGGUCAUAGGCCAUGGAAACUUGGAGCACCAUUUCGCUGCCAGUGAAAAAAUGAACAAAGAAAAUCUGGGCCAGGCAGGCAUCAAAAGAAAUAGUCUUGCGCUCAACCAGAAAGUCUGUAAUCAUUUUAAGGGUA [A27U G53A], the figure is 1.86. As for GUUAACGGUCAUAGGCCAUGGAAACUUGGAGCACCAUUUCGCUGCCAGCGAAGAAAUGAACAAAGAAAAUCUGGGCCAGGCAGGCAUCAAAAGAAAUAGUCUUGCGCUCAACCAGAAAGUCUGUAAUCAUUUUAAGGGUA [A27U U49C], the figure is 2.12; as for GUUAACGGUCAUAGGCCAUGGAAACUUGGAGCACCAUUUCGCUGCCAGUGAAGAAAUGAACAAAGAAAAUCUGGGCCAGGCAGGCGUCAAAAGAAAUAGUCUUGCGCUCAACCAGAAAGUCUGUAAUCAUUUUAAGGGUA [A27U A86G], 1.43. As for GUUAACGGUCAUAGGCCAUGGAAACUUGGAGCACCAUUUCGCUGCCAGUGAAGAAAUGAACAAAGAAAAUCUGGGCCAGGCAGGCAUCAAAAGAAGUAGUCUUGCGCUCAACCAGAAAGUCUGUAAUCAUUUUAAGGGUA [A27U A96G], the figure is 1.6; as for GUUAACGGUCAUAGGCCAUGGAAACUUGGAGCACCAUUUCGCUGCCAGUGAAGAAAUGAACAAAGAAAAUCUGGGCCAGGCAAGCAUCAAAAGAAAUAGUCUUGCGCUCAACCAGAAAGUCUGUAAUCAUUUUAAGGGUA [A27U G83A], 1.31; as for GUUAACGGUCAUAGGCCAUGGAAACUAAGAGCACCAUUUCGCUGCCAGUGAAGAAAUGAACAAAGAAAAUCUGGGCCAGGCAGGCAUCAAAAGAAAUAGUCUUGCGCUCAACCAGAAAGUCUGUAAUAAUUUUAAGGGUA [G28A C128A], 1.34. Consider GUUAACGGUCAUAGGCCAUGGAAACUUGGAGCACCAUUUCGCUGCCAGUGAAGAAAUGAACAAAGAAAAUCUGGGCCAGGCAGGCAUCAAAGGAAAUAGUCUUGCGCUCAACCAGAAAGUCUGUAAUCAUUUUAAGGGUA [A27U A92G], for which the self-cleavage was 1.83. As for GUUAACGGUCAUAGGCCAUGGAAACUUGGAGCACCAUUUCGCUGCCAGUGAAGAAAUGAACAAAGAAAAUCUGGGCCAGGCAGGCAUCAAAAGAAAUAGUCUUGCGCCCAACCAGAAAGUCUGUAAUCAUUUUAAGGGUA [A27U U108C], the figure is 0.03.

With GUUAACGGUCAUAGGCCAUGGAAACUUGGAGCACCAUUUCGCUGCCAGUGAAGAAAUGAACAAAGAAAAUCUGGGCCAGGCAGGCAUCAAAAGAAAUAGUCCUGCGCUCAACCAGAAAGUCUGUAAUCAUUUUAAGGGUA [A27U U102C], the self-cleavage was found to be 2.12.

In the case of GUUAACGGUCAUAGGCCAUGGAAACUUGGAGCACCGUUUCGCUGCCAGUGAAGAAAUGAACAAAGAAAAUCUGGGCCAGGCAGGCAUCAAAAGAAAUAGUCUUGCGCUCAACCAGAAAGUCUGUAAUCAUUUUAAGGGUA [A27U A36G], the self-cleavage was found to be 1.64. As for GUUAACGGUCAUAGGCCAUGGAAACUAAGAGCACCAUUUCGCUGCCAGUGAGGAAAUGAACAAAGAAAAUCUGGGCCAGGCAGGCAUCAAAAGAAAUAGUCUUGCGCUCAACCAGAAAGUCUGUAAUCAUUUUAAGGGUA [G28A A52G], the figure is 1.9. In the case of GUUAACGGUCAUAGGCCAUGGAAACUAAGAGCACCAUUUCGCUGCCAGUGAAGAAGUGAACAAAGAAAAUCUGGGCCAGGCAGGCAUCAAAAGAAAUAGUCUUGCGCUCAACCAGAAAGUCUGUAAUCAUUUUAAGGGUA [G28A A56G] it was 1.49; in that of GUUAACGGUCAUAGGCCAUGGAAACUUGGAGCACCAUUUCGCUGCCAGUGAAGAAAUGAACAAAGAAAAUCUGGGCCAGGCAGGCAUCAAAAGAAAUAGUCUUGCGCUCAACCAGAAGGUCUGUAAUCAUUUUAAGGGUA [A27U A118G], 1.21; in that of GUUAACGGUCAUAGGCCAUGGAAACUUGGAGCACCAUUUCGCUGCCAGUGAAGAAAUGAACAAUGAAAAUCUGGGCCAGGCAGGCAUCAAAAGAAAUAGUCUUGCGCUCAACCAGAAAGUCUGUAAUCAUUUUAAGGGUA [A27U A64U], 2.21. In the case of GUUAACGGUCAUAGGCCAUGGAAACUAAGAGCACCAUUUCGCUGCCAGUGAAGAAAUGAACAAAGAAAAUCUGGGCCAGGCAGGCAUCAAAAGAAAUAGUCUUGCGCUCAACCGGAAAGUCUGUAAUCAUUUUAAGGGUA [G28A A114G] it was 0.35. For GUUAACGGUCAUAGGCCAUGGAAACUAAGAGCACCAUUUCGCUGCCAGUGAAGAAAUGAACAAAGAAGAUCUGGGCCAGGCAGGCAUCAAAAGAAAUAGUCUUGCGCUCAACCAGAAAGUCUGUAAUCAUUUUAAGGGUA [G28A A68G], the self-cleavage was determined as 2.39.
